Experimental data taken from patent publication US20170298096A1 (CANIMGUIDE THERAPEUTICS, published 2017).
No end group written: not given here.

T1: His-tagged P3028 (human, also: His-tag, terminus and sequence not given here)
T1 construct: in solution at 0.5 ug/mL over the peptide cards; found with anti-His-tag antibody and rabbit anti-mouse peroxidase (rampo); also called PGE73; not shown: His-tag
T1 peptide: VFDEFKPLVEEPQNLIK

B1: SEQ ID NO 354 (peptide)
peptide: KKLDTFFVKLSNFTER
B2: SEQ ID NO 356 (peptide)
peptide: KKLDTFFVKLSRFTER
B3: SEQ ID NO 431 (peptide)
peptide: KKLDTFFVKLSGFTER
B4: SEQ ID NO 401 (peptide)
peptide: KKLDTSFVKLSLFTER
B5: SEQ ID NO 438 (peptide)
peptide: KKLDTFFVKLSKFTER
B6: SEQ ID NO 407 (peptide)
peptide: KRLDTFFVKLSLFTER
B7: SEQ ID NO 429 (peptide)
peptide: KKLDVFFVKLSLFTER
B8: SEQ ID NO 424 (peptide)
peptide: KKLDTFEVKLSLFTER
B9: SEQ ID NO 378 (peptide)
peptide: KKLDTFFVKLSLFHER
B10: SEQ ID NO 359 (peptide)
peptide: KKLDTFFVKLSVFTER
B11: SEQ ID NO 393 (peptide)
peptide: KKLDTFFVKLSLFTEY
B12: SEQ ID NO 423 (peptide)
peptide: KKLMTFFVKLSLFTER
B13: SEQ ID NO 355 (peptide)
peptide: KKLDTFFVKLSQFTER
B14: SEQ ID NO 361 (peptide)
peptide: KKLDTFFVKLSLATER
B15: SEQ ID NO 415 (peptide)
peptide: KKLDTFFVKLYLFTER
B16: SEQ ID NO 387 (peptide)
peptide: KKLDTFFVKLSLFTDR
B17: SEQ ID NO 365 (peptide)
peptide: KKLDTFFVKLSLITER
B18: SEQ ID NO 435 (peptide)
peptide: KKLPTFFVKLSLFTER
B19: SEQ ID NO 404 (peptide)
peptide: KKLDTFAVKLSLFTER
B20: SEQ ID NO 389 (peptide)
peptide: KKLDTFFVKLSLFTEK
B21: SEQ ID NO 357 (peptide)
peptide: KKLDTFFVKLSSFTER
B22: SEQ ID NO 434 (peptide)
peptide: KKLDTYFVKLSLFTER
B23: SEQ ID NO 376 (peptide)
peptide: KKLDTFFVKLSLFFER
B24: SEQ ID NO 397 (peptide)
peptide: KKLDTFIVKLSLFTER
B25: SEQ ID NO 364 (peptide)
peptide: KKLDTFFVKLSLHTER
B26: SEQ ID NO 381 (peptide)
peptide: KKLDTFFVKLSLFMER
B27: SEQ ID NO 436 (peptide)
peptide: KKPDTFFVKLSLFTER
B28: SEQ ID NO 371 (peptide)
peptide: KKLDTFFVKLSLRTER
B29: SEQ ID NO 412 (peptide)
peptide: KGLDTFFVKLSLFTER
B30: SEQ ID NO 390 (peptide)
peptide: KKLDTFFVKLSLFTEN
B31: SEQ ID NO 425 (peptide)
peptide: KKLDTFWVKLSLFTER
B32: SEQ ID NO 370 (peptide)
peptide: KKLDTFFVKLSLQTER
B33: SEQ ID NO 382 (peptide)
peptide: KKLDTFFVKLSLFNER
B34: SEQ ID NO 385 (peptide)
peptide: KKLDTFFVKLSLFVER
B35: SEQ ID NO 413 (peptide)
peptide: KKLTTFFVKLSLFTER
B36: SEQ ID NO 421 (peptide)
peptide: KFLDTFFVKLSLFTER
B37: SEQ ID NO 369 (peptide)
peptide: KKLDTFFVKLSLPTER
B38: SEQ ID NO 383 (peptide)
peptide: KKLDTFFVKLSLFPER
B39: SEQ ID NO 374 (peptide)
peptide: KKLDTFFVKLSLVTER
B40: SEQ ID NO 377 (peptide)
peptide: KKLDTFFVKLSLFGER
B41: SEQ ID NO 367 (peptide)
peptide: KKLDTFFVKLSLMTER
B42: SEQ ID NO 372 (peptide)
peptide: KKLDTFFVKLSLSTER
B43: SEQ ID NO 426 (peptide)
peptide: KKLFTFFVKLSLFTER
B44: SEQ ID NO 409 (peptide)
peptide: KKLDTFCVKLSLFTER
B45: SEQ ID NO 360 (peptide)
peptide: KKLDTFFVKLSWFTER
B46: SEQ ID NO 373 (peptide)
peptide: KKLDTFFVKLSLTTER
B47: SEQ ID NO 375 (peptide)
peptide: KKLDTFFVKLSLWTER
B48: SEQ ID NO 362 (peptide)
peptide: KKLDTFFVKLSLCTER
B49: SEQ ID NO 433 (peptide)
peptide: KKLDTFHVKLSLFTER
B50: SEQ ID NO 366 (peptide)
peptide: KKLDTFFVKLSLLTER
B51: SEQ ID NO 418 (peptide)
peptide: KHLDTFFVKLSLFTER
B52: SEQ ID NO 422 (peptide)
peptide: KKLDTFFVKLSFFTER
B53: SEQ ID NO 386 (peptide)
peptide: KKLDTFFVKLSLFWER
B54: SEQ ID NO 388 (peptide)
peptide: KKLDTFFVKLSLFTEF
B55: SEQ ID NO 410 (peptide)
peptide: KKLDTQFVKLSLFTER
B56: SEQ ID NO 379 (peptide)
peptide: KKLDTFFVKLSLFIER
B57: SEQ ID NO 419 (peptide)
peptide: KKLDTFFVKLVLFTER
B58: SEQ ID NO 432 (peptide)
peptide: KKLDTFRVKLSLFTER
B59: SEQ ID NO 411 (peptide)
peptide: KKLDTLFVKLSLFTER
B60: SEQ ID NO 384 (peptide)
peptide: KKLDTFFVKLSLFSER
B61: SEQ ID NO 402 (peptide)
peptide: KNLDTFFVKLSLFTER
B62: SEQ ID NO 380 (peptide)
peptide: KKLDTFFVKLSLFLER
B63: SEQ ID NO 417 (peptide)
peptide: KMLDTFFVKLSLFTER
B64: SEQ ID NO 405 (peptide)
peptide: KPLDTFFVKLSLFTER
B65: SEQ ID NO 358 (peptide)
peptide: KKLDTFFVKLSTFTER
B66: SEQ ID NO 392 (peptide)
peptide: KKLDTFFVKLSLFTET
B67: SEQ ID NO 416 (peptide)
peptide: KKLDTFFIKLSLFTER
B68: SEQ ID NO 368 (peptide)
peptide: KKLDTFFVKLSLNTER
B69: SEQ ID NO 420 (peptide)
peptide: KKLDHFFVKLSLFTER
B70: SEQ ID NO 437 (peptide)
peptide: KKLDTFPVKLSLFTER
B71: SEQ ID NO 363 (peptide)
peptide: KKLDTFFVKLSLGTER

Target: T1, His-tagged P3028
Test: PEPSCAN chip ELISA, His-P3028 in solution;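 further: score is the raw OD at 405 nm from peroxidase colour with ABTS, imaged by CCD camera before and after staining, with wells showing air bubbles set to zero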

RAMPO Score	Binder
462 rampo score	B1
483 rampo score	B2
370 rampo score	B3
432 rampo score	B4
355 rampo score	B5
417 rampo score	B6
374 rampo score	B7
381 rampo score	B8
463 rampo score	B9
545 rampo score	B10
311 rampo score	B11
384 rampo score	B12
651 rampo score	B13
525 rampo score	B14
402 rampo score	B15
404 rampo score	B16
468 rampo score	B17
364 rampo score	B18
426 rampo score	B19
291 rampo score	B20
478 rampo score	B21
364 rampo score	B22
348 rampo score	B23
446 rampo score	B24

RAMPO Score	Binder
1050 rampo score	B25
501 rampo score	B26
361 rampo score	B27
502 rampo score	B28
405 rampo score	B29
311 rampo score	B30
380 rampo score	B31
1140 rampo score	B32
599 rampo score	B33
380 rampo score	B34
405 rampo score	B35
390 rampo score	B36
696 rampo score	B37
551 rampo score	B38
446 rampo score	B39
343 rampo score	B40
1190 rampo score	B41
635 rampo score	B42
380 rampo score	B43
411 rampo score	B44
409 rampo score	B45
494 rampo score	B46
430 rampo score	B47
400 rampo score	B48

RAMPO Score	Binder
364 rampo score	B49
448 rampo score	B50
394 rampo score	B51
389 rampo score	B52
374 rampo score	B53
297 rampo score	B54
410 rampo score	B55
375 rampo score	B56
392 rampo score	B57
369 rampo score	B58
408 rampo score	B59
369 rampo score	B60
432 rampo score	B61
360 rampo score	B62
400 rampo score	B63
425 rampo score	B64
437 rampo score	B65
292 rampo score	B66
401 rampo score	B67
862 rampo score	B68
391 rampo score	B69
356 rampo score	B70
531 rampo score	B71
